Data on 1 molecule can be found in doi:10.1101/2022.07.31.502239.

This test deals with T1, mmLRRC8A with C-terminal EGFP and HA-tag (Mus musculus), Q80WG5.
T1 chain: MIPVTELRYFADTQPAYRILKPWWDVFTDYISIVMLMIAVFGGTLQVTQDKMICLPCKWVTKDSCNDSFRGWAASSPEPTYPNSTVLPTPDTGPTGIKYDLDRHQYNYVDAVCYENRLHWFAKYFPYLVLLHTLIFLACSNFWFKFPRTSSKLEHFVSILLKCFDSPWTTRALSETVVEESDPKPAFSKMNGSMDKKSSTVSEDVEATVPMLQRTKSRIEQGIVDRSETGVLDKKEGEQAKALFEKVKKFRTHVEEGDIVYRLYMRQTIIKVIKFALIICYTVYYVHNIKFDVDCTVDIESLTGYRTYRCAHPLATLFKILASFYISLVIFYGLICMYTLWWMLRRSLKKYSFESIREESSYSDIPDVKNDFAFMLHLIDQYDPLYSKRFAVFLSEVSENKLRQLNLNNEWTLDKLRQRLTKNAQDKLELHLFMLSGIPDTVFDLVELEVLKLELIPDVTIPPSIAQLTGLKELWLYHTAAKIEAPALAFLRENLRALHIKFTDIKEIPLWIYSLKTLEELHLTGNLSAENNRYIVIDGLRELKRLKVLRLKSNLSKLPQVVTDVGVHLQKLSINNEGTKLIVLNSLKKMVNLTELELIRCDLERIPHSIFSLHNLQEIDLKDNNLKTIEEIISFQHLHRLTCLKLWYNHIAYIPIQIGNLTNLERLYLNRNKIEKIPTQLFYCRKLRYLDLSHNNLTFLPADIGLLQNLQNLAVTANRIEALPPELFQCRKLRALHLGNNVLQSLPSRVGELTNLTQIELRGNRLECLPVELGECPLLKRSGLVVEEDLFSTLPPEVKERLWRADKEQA
The experiment in a line: single molecule pulldown with stepwise photobleaching subunit counting. The note with it: remark: other sources report otherwise.

B1: mmLRRC8A with C-terminal EGFP and HA-tag, Q80WG5 1-810 (natural protein)
chain: MIPVTELRYFADTQPAYRILKPWWDVFTDYISIVMLMIAVFGGTLQVTQDKMICLPCKWVTKDSCNDSFRGWAASSPEPTYPNSTVLPTPDTGPTGIKYDLDRHQYNYVDAVCYENRLHWFAKYFPYLVLLHTLIFLACSNFWFKFPRTSSKLEHFVSILLKCFDSPWTTRALSETVVEESDPKPAFSKMNGSMDKKSSTVSEDVEATVPMLQRTKSRIEQGIVDRSETGVLDKKEGEQAKALFEKVKKFRTHVEEGDIVYRLYMRQTIIKVIKFALIICYTVYYVHNIKFDVDCTVDIESLTGYRTYRCAHPLATLFKILASFYISLVIFYGLICMYTLWWMLRRSLKKYSFESIREESSYSDIPDVKNDFAFMLHLIDQYDPLYSKRFAVFLSEVSENKLRQLNLNNEWTLDKLRQRLTKNAQDKLELHLFMLSGIPDTVFDLVELEVLKLELIPDVTIPPSIAQLTGLKELWLYHTAAKIEAPALAFLRENLRALHIKFTDIKEIPLWIYSLKTLEELHLTGNLSAENNRYIVIDGLRELKRLKVLRLKSNLSKLPQVVTDVGVHLQKLSINNEGTKLIVLNSLKKMVNLTELELIRCDLERIPHSIFSLHNLQEIDLKDNNLKTIEEIISFQHLHRLTCLKLWYNHIAYIPIQIGNLTNLERLYLNRNKIEKIPTQLFYCRKLRYLDLSHNNLTFLPADIGLLQNLQNLAVTANRIEALPPELFQCRKLRALHLGNNVLQSLPSRVGELTNLTQIELRGNRLECLPVELGECPLLKRSGLVVEEDLFSTLPPEVKERLWRADKEQA
B1 gave a stoichiometry N of 6.
